# What was measured:
# Experiment in all cases: cell-based or functional assay
# [1] = molecular target: PLK1 Polo-like kinase 1 (UniProt P53350 1-603, limits assumed)
# [2] = molecular target: MAPKAPK2 Mitogen-activated protein kinase-activated protein kinase 2 (UniProt P49137 1-400, limits assumed)
# [3] = molecular target: CAMK2A (CaMKII alpha) (UniProt Q9UQM7 1-478, limits assumed)
# [4] = molecular target: RPS6KA6 (RSK4) (UniProt Q9UK32 1-745, limits assumed)
# [5] = molecular target: T1, IRAK4 (interleukin-1 receptor-associated kinase 4) (UniProt Q9NWZ3 1-460, limits assumed)
# T1 sequence (looked up): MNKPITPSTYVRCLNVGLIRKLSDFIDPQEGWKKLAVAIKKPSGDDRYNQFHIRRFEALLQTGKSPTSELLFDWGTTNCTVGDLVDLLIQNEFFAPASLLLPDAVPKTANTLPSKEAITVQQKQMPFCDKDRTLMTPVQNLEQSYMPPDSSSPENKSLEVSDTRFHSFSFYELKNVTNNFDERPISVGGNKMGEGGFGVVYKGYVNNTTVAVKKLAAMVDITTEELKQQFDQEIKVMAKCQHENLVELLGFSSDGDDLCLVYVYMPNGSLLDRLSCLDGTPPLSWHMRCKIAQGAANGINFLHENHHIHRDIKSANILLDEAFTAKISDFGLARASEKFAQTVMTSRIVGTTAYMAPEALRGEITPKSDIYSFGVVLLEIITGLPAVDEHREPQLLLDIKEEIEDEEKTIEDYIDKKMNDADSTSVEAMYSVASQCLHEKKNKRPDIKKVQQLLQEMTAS
# [6] = molecular target: PRKCH (PKC eta) (UniProt P24723 1-683, limits assumed)
# [7] = molecular target: T2, MERTK (cMER) (UniProt Q12866 578-872, limits assumed)
# T2 sequence (looked up): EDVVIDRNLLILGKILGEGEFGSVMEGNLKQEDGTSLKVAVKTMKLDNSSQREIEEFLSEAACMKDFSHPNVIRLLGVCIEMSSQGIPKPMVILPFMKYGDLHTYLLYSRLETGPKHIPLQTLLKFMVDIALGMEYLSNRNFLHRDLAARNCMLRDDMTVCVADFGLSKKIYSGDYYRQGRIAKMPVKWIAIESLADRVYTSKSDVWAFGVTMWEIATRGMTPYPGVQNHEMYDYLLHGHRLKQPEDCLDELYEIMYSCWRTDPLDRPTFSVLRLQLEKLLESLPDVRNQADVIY
# [8] = molecular target: MAP2K1 (MEK1) (UniProt Q02750 1-393, limits assumed)
# [9] = molecular target: PKN1 (PRK1) (UniProt Q16512 1-942, limits assumed)
# [10] = molecular target: PAK4 P21(CDKN1A)-activated kinase 4 (UniProt O96013 1-591, limits assumed)
# [11] = molecular target: CLK2 (UniProt P49760 1-499, limits assumed)
# [12] = molecular target: T3, PRKCN (PKD3) (UniProt O94806 1-890, limits assumed)
# T3 sequence (looked up): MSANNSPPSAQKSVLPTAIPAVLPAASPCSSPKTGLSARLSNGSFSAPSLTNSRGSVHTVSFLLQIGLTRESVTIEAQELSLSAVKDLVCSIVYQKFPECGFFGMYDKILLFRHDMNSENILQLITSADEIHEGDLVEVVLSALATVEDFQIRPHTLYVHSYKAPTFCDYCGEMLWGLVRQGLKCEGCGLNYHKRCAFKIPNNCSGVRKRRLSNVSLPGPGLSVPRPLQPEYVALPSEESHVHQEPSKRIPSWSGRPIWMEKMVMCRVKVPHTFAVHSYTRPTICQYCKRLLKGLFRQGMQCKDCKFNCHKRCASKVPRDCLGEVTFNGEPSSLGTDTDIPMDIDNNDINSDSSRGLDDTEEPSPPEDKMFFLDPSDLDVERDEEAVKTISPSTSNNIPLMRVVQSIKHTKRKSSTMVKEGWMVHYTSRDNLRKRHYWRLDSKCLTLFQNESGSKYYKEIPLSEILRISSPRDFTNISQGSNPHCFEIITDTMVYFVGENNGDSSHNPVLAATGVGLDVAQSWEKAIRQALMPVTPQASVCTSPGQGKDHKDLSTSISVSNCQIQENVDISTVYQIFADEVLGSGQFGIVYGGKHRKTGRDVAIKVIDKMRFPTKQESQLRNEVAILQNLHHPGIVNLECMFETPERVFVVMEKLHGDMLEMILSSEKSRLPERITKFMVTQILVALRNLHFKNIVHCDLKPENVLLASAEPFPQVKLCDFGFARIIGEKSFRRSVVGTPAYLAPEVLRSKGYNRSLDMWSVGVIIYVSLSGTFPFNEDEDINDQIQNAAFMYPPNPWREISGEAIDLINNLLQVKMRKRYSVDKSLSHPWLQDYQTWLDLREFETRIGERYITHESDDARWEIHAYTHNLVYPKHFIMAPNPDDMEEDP
# [13] = molecular target: AKT2 (PKB beta) (human (printed as (h)), UniProt P31751 1-481, limits assumed)
# [14] = molecular target: T4, NEK1 NIMA (never in mitosis gene a)-related kinase 1 (UniProt Q96PY6 1-505, limits assumed)
# T4 sequence (looked up): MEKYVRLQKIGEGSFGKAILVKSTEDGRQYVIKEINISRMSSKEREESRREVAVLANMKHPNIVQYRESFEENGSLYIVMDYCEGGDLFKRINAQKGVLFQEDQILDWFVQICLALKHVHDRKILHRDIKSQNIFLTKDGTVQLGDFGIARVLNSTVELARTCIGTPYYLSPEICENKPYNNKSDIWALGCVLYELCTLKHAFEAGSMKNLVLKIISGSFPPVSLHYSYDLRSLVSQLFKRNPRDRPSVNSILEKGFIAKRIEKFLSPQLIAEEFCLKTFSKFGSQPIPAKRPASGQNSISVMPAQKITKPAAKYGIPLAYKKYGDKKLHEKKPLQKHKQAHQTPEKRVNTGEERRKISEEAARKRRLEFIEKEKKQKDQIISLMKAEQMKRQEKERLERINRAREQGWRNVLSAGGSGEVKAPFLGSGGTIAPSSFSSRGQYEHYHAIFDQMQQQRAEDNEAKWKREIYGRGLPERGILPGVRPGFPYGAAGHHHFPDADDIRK
# PLK1 Polo-like kinase 1, sequence (P53350 whole entry): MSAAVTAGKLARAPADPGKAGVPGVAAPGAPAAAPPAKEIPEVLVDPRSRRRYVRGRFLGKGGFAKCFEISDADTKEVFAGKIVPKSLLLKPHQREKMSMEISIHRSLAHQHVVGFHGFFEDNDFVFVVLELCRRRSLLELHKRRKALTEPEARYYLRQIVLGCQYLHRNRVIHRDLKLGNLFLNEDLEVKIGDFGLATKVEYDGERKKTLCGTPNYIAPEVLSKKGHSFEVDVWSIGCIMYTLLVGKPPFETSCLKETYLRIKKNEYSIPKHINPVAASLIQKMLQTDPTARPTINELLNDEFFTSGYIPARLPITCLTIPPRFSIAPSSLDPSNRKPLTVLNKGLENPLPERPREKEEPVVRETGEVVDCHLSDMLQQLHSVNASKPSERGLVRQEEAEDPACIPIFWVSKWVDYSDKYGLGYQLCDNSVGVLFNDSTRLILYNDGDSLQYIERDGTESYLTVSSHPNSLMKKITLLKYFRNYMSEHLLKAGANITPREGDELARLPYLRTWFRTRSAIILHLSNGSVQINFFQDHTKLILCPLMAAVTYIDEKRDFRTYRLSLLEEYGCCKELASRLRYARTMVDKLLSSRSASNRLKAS
# PKN1 (PRK1), sequence (Q16512 whole entry): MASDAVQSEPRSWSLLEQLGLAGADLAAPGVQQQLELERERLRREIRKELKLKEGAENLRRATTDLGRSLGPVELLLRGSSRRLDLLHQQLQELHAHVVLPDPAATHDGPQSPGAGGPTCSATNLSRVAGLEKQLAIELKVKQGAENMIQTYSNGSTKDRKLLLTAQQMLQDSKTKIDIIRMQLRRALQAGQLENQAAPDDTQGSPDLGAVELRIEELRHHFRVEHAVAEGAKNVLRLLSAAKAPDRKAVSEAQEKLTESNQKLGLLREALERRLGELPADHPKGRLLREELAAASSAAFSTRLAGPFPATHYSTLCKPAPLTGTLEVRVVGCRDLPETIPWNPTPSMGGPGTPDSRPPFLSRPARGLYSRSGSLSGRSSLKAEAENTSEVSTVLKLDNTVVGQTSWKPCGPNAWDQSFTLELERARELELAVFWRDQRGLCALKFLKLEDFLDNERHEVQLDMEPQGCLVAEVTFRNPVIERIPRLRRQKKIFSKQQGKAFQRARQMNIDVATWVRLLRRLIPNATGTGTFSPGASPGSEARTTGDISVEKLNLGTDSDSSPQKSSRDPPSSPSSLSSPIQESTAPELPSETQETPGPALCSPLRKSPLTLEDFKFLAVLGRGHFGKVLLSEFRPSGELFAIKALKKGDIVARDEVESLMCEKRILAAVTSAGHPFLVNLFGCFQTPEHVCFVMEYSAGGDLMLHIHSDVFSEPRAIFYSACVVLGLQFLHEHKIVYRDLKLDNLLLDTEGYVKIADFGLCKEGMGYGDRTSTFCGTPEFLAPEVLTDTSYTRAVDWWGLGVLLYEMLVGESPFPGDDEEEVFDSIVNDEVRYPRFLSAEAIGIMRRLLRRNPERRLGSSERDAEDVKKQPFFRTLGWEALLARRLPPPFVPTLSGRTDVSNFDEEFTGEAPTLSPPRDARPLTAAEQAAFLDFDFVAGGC
# MAPKAPK2 Mitogen-activated protein kinase-activated protein kinase 2, sequence (P49137 whole entry): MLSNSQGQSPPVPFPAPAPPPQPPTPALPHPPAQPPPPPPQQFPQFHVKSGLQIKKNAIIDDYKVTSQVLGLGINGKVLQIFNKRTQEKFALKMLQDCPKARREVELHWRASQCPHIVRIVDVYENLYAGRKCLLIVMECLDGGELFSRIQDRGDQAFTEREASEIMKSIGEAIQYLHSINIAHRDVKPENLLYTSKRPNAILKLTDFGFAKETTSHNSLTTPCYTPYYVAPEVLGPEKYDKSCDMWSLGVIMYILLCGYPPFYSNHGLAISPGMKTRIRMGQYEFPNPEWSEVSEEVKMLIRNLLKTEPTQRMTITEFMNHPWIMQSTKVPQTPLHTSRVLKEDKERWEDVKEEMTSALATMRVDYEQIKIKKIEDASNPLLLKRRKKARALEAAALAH
# CLK2, sequence (P49760 whole entry): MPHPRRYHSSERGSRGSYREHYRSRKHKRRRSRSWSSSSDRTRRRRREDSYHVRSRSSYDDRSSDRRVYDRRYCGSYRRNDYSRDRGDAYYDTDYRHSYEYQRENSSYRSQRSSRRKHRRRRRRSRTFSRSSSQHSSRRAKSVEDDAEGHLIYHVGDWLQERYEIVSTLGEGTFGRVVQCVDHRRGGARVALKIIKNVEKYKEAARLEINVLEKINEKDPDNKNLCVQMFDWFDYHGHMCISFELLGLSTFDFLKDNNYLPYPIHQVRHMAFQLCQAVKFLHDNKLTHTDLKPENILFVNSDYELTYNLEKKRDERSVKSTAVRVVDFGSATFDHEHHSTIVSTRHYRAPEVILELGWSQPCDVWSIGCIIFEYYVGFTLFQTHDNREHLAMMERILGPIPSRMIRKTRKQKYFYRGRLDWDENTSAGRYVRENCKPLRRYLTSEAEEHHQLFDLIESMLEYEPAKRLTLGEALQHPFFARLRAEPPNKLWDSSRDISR
# PRKCH (PKC eta), sequence (P24723 whole entry): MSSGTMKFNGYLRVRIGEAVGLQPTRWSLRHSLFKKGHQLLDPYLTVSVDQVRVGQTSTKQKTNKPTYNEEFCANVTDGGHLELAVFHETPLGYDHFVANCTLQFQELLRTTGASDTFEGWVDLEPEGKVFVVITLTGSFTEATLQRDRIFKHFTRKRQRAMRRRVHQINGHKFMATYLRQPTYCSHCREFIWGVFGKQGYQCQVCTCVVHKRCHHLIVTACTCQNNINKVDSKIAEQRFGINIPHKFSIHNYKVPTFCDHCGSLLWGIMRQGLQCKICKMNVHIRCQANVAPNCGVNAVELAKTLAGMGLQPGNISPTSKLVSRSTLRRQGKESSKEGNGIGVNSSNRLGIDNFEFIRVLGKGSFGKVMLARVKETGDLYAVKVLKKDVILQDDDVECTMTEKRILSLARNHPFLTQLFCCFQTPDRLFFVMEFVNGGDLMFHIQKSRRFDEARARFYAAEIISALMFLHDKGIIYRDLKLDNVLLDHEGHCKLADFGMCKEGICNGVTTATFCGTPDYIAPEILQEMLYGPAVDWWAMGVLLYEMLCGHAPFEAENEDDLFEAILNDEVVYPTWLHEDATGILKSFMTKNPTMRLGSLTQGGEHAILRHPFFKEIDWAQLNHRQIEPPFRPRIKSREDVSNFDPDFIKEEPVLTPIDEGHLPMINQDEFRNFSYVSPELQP
# RPS6KA6 (RSK4), sequence (Q9UK32 whole entry): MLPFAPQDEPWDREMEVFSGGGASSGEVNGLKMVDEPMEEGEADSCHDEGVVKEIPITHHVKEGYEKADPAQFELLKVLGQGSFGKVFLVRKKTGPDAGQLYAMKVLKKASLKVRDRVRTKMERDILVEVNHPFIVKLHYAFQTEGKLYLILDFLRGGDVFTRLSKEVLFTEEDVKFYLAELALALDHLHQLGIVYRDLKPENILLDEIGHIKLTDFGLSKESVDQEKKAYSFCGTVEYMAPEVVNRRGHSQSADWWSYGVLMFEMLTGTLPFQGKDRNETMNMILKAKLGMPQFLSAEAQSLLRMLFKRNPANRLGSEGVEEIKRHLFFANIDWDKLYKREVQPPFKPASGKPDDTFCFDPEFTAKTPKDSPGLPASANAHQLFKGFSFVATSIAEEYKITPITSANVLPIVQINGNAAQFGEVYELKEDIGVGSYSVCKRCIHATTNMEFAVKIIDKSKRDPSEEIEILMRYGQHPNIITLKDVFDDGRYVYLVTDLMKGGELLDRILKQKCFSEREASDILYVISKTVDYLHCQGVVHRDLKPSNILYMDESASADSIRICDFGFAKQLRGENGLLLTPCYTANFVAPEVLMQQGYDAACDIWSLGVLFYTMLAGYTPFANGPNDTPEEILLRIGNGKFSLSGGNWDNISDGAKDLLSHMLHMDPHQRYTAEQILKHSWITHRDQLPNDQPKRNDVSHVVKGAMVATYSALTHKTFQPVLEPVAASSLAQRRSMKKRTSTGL
# PAK4 P21(CDKN1A)-activated kinase 4, sequence (O96013 whole entry): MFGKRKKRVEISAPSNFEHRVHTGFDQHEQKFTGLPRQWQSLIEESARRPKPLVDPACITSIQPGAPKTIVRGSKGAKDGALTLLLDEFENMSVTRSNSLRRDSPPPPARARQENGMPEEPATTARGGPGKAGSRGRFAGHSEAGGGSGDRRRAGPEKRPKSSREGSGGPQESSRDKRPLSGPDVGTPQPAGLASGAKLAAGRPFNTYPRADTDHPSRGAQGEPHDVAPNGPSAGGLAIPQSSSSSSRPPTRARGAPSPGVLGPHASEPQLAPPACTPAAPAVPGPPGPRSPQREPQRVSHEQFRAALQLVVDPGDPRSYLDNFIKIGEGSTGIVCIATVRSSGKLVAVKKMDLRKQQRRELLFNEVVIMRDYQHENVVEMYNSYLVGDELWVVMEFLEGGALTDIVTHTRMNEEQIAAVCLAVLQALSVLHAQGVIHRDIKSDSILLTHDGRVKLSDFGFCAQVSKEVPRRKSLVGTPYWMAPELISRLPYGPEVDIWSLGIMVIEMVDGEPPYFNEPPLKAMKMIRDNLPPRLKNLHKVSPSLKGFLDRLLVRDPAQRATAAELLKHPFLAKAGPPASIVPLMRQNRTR
# CAMK2A (CaMKII alpha), sequence (Q9UQM7 whole entry): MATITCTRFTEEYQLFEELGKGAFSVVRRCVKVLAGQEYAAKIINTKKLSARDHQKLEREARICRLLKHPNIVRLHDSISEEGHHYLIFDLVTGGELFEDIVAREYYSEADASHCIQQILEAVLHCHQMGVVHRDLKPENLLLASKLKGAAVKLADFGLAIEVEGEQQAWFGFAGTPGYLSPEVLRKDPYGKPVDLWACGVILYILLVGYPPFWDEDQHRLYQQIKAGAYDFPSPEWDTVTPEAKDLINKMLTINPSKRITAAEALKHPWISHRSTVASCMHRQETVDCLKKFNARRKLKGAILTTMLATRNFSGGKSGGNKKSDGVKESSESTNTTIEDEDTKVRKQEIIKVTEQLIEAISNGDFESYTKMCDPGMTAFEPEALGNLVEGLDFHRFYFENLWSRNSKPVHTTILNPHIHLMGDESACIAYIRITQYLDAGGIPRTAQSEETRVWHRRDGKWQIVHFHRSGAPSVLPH
binder,measurement,setting,value
SGRPPMIVWFNRPFLIAVSHTHGQTILFMAKVINPVGA [D3 peptide],% Inhibition mean,[1],51%
same,% Inhibition mean,[2],58%
same,% Inhibition mean,[3],82.6%
same,% Inhibition mean,[4],87.6%
same,% Inhibition mean,[5],96%
same,% Inhibition mean,[6],46.5%
same,% Inhibition mean,[7],79.5%
same,% Inhibition mean,[8],94%
same,% Inhibition mean,[9],64%
same,% Inhibition mean,[10],47%
same,% Inhibition mean,[11],65.9%
same,% Inhibition mean,[12],69.6%
same,% Inhibition mean,[13],67.7%
same,% Inhibition mean,[14],84%

# From US20100184658A1 (published 2010)
